In test [1] the target is T1, human CD39 (human, UniProt P49961 1-510).
T1 construct: full length human CD39 (NP_001767.3) on transfected CHOK1 cells, or native on SK-MEL-5, SK-MEL-28 and MOLP-8 cells; also called hCD39; ENTPD1
T1 sequence: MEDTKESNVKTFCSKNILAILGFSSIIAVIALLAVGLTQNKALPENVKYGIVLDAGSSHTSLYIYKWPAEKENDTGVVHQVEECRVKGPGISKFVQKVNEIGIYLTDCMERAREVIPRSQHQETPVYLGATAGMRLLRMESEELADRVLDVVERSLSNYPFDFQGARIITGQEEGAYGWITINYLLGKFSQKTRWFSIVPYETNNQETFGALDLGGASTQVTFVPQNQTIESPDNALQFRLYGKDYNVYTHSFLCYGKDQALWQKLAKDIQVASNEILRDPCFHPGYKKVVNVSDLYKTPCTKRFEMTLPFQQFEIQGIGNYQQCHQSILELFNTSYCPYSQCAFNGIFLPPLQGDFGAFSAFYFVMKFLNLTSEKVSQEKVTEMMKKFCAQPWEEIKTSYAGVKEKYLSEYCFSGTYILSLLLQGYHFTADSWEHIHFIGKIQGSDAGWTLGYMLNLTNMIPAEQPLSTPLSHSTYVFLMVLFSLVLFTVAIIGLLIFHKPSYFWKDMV
As to the kind of experiment: FACS, MOLP-8 cells. In general terms: In flow cytometry, cells or beads pass a laser one at a time.

In test [2] the target is T1, human CD39. In words: FACS, MOLP-8 cells, second set.
For test [3], the target named is T2, 6×His tagged human CD39 (human).
T2 chain: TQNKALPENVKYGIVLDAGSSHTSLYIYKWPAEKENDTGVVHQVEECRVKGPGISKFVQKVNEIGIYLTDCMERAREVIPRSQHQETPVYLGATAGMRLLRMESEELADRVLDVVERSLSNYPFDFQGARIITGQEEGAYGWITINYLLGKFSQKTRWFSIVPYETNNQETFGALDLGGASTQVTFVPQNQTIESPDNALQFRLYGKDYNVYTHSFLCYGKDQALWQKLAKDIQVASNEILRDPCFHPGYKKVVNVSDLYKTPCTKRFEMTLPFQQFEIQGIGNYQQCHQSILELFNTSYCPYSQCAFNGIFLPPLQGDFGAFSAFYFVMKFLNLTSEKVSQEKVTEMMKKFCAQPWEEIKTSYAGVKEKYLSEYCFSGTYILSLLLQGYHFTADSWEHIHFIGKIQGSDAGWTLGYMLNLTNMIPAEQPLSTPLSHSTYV
As to the kind of experiment: Biacore, antibody captured, 6×His human CD39 as analyte, 1:1 model. The method, then: In particular, humanized antibodies hu23.H5L5, hu23.201, hu14.H1L1 and reference antibodies I394 and T895 were characterized for binding affinity against human CD39 using Biacore (GE). Briefly the antibodies to be tested were captured to […] (GE) using Human Antibody Capture Kit (GE). The antigen of 6×His tagged human CD39 was serially diluted for multiple doses and injected at 30 μl/min for 180 s. Buffer flow was maintained for dissociation of 400 s. 3 M MgCl₂ was used for chip regeneration. The association and dissociation curves were fit with 1:1 binding model, and the Ka/Kd/KD values for each antibody were calculated.
On the technique in general: Surface plasmon resonance follows binding to a sensor surface in real time, without labels.

Test [4] concerns the target T3, human TGFβ1 (human, UniProt P01137 279-390).
T3 construct: also called TGFβ peptide (TGFβ1); biotinylated TGFβ1
In words: ELISA, coated human TGFβ1. The method, then:
To determine the binding ability and specificity of the anti-CD39/TGFβ Trap molecules, ELISA assays were conducted using human TGFβ1, human TGFβ2, human TGFβ3 as well as mouse TGFβ1. The tested antigens were coated on NUNC 96-well immunoplate at the concentration of 1 μg/ml. Binding with increasing concentrations of anti-CD39/TGFβ Trap molecules was measured with anti-human Fc antibody horseradish peroxidase conjugate diluted in PBT buffer, then developed with TMB substrate. Soluble TGFβ trap was used as control. As shown in FIGS. 25A-25C, the anti-CD39/TGFβ Trap molecules ES014-1 and ES014-2 bind to all three TGFβ homologues: human TGFβ1, TGFβ2 and TGFβ3. The binding assay results of the other tested anti-CD39/TGFβ Trap molecules (including ES014-3, ES014-4, ES014-5, ES014-6, ES014-7) were similar and not shown herein. Moreover, the anti-CD39/TGFβ Trap molecule ES014-1 binds to mouse TGFβ1 with similar affinity as for human TGFβ1 (FIG. 25D).
(An ELISA detects its analyte on a solid surface through an enzyme-linked reagent.)

Test [5] concerns the target T3, human TGFβ1. In words: ELISA, blocking of TGFβRII-His binding to coated TGFβ1. Here is the method: For blocking assay, TGFβ peptide (TGFβ1) was coated on microplates. A serial dilution of purified antibodies was incubated with recombinant TGFβRII-His protein (SinoBiological) for 1 h in TGFβ1-coated plates. After wash, the remaining TGFβRII-His was detected by anti-His-HRP conjugated secondary antibody. The values of absorbance at 450 nm were read on a microtiter plate reader (Molecular Devices Corp) for the quantification of TGFβRII-His binding to TGFβ1. All the tested anti-CD39/TGFβ Trap molecules (i.e. ES014-1, ES014-2, ES014-3, ES014-6) could effectively block human TGFβ1 binding to the TGFβ receptor TGFβRII (FIG. 26, Soluble TGFβ trap (i.e. TGFβRII) was used as control). IC 50 values of the anti-CD39/TGFβ Trap molecules were analyzed using GraphPad Prism.

For test [6], the target named is T1, human CD39. In words: FACS, MOLP-8 cells. This is another data set of the same source.
The target in test [7] is T1, human CD39. As to the kind of experiment: FACS, SK-MEL-5 cells.
Test [8] deals with T1, human CD39. As to the kind of experiment: FACS, SK-MEL-28 cells.
For test [9], the target named is T1, human CD39. In words: cell-based or functional assay.
Test [10] concerns the target T4, cynomolgus CD39 (cynomolgus monkey, UniProt A0A7N9DGH8 1-510).
T4 construct: whole, on cells; also called cyno CD39; CHOK1-cynoCD39
T4 sequence: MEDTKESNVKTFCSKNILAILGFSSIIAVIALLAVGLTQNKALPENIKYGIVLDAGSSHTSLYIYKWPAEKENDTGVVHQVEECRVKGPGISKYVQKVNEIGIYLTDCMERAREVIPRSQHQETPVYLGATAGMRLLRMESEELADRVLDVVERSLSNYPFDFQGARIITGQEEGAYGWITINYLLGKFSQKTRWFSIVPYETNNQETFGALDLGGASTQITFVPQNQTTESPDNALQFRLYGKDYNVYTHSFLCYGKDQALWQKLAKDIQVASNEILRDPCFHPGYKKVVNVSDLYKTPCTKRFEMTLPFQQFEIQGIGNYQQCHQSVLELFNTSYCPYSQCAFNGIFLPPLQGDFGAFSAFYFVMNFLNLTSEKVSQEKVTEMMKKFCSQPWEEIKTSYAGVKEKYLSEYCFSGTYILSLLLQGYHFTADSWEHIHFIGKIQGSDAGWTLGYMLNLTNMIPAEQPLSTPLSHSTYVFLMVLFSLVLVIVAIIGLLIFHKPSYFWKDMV
As to the kind of experiment: FACS, CHO-K1/cynoCD39 cells.

The results in this text go back to US20230416394A1 (ELPISCIENCE SUZHOU BIOPHARMA, published 2023).

T3 sequence (P01137 279-390 limits assumed): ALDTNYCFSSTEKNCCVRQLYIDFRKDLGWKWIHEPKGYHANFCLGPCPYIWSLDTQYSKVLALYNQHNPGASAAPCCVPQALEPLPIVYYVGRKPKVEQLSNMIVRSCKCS

B1: hu23.H3L1 (antibody, V domains shown)
VH: QVQLVQSGAEVKKPGASVKLSCKASGYNLKDTFLHWVRQAPGQGLEWIGRIDPANGNIKYDPKFQGRATITADTSASTAYMELSSLRSEDTAVYYCANSPYYYGSGYRIFDVWGQGTTVTVSS
VL: EIVLTQSPATLSLSPGERATLSCSAFSSVNYMHWYQQKPGQAPRLLIYTTSNLASGIPARFSGSGSGTDFTLTISSLEPEDFAVYYCQQRSTYPFTFGQGTKLEIK
For the molecule B1, the EC50 in test [1] is around 15.4 nM.

B2: hu23.H1L1 (antibody, V domains shown)
VH: QVQLVQSGAEVKKPGASVKVSCKASGYNLKDTFLHWVRQAPGQRLEWMGRIDPANGNIKYDPKFQGRVTITRDTSASTAYMELSSLRSEDTAVYYCARSPYYYGSGYRIFDVWGQGTTVTVSS
VL: EIVLTQSPATLSLSPGERATLSCSAFSSVNYMHWYQQKPGQAPRLLIYTTSNLASGIPARFSGSGSGTDFTLTISSLEPEDFAVYYCQQRSTYPFTFGQGTKLEIK
In test [2], B2 registered an EC50 of around 78.2 nM.

B3: hu14.H1L1 (antibody, V domains shown)
VH: EVQLVESGGGLVKPGGSLRLSCAASGFTFSKYWMNWVRQAPGKGLEWVGEIRLKSNKYGTHYAESVKGRFTISRDDSKNTLYLQMNSLKTEDTAVYYCTTQLDLYWFFDVWGQGTTVTVSS
VL: EIVLTQSPATLSLSPGERATLSCRASQSISDYLHWYQQKPGQAPRLLIYYASQSISGIPARFSGSGSGTDFTLTISSLEPEDFAVYYCQNGHSLPLTFGGGTKLEIK
For B3, in test [3], the Kd was determined as 5.03 nM, the koff was determined as 0.00455 s⁻¹ and the kon is 903000 M⁻¹ s⁻¹.

B4: Soluble TGFβ trap (i.e. TGFβRII) (receptor, UniProt P37173 24-159, looked up)
chain: IPPHVQKSVNNDMIVTDNNGAVKFPQLCKFCDVRFSTCDNQKSCMSNCSITSICEKPQEVCVAVWRKNDENITLETVCHDPKLPYHDFILEDAASPKCIMKEKKKPGETFFMCSCSSDECNDNIIFSEEYNTSNPD
notes: construct not described; also called TGFβ trap control
Take B4: the response in test [4] was half-maximal at 0.017 nM (EC50). The IC50 in test [5] was found to be 0.58 nM.

B5: I394 (antibody, V domains shown)
VH: QVQLVQSGAEVKKPGASVKVSCKASGYTFKSYEMHWVRQAPGQGLEWMGRINPSVGSTWYAQKFQGRVTMTRDTSTSTVYMELSSLRSEDTAVYYCARGKREGGTEYLRKWGQGTLVTVSS
VL: EIVLTQSPGTLSLSPGERATLSCRASQSVASSYLAWYQQKPGQAPRLLIYGASNRHTGIPDRFSGSGSGTDFTLTISRLEPEDFAVYYCQQYHNAITFGGGTKVEIK
For B5, the EC50 in test [6] was determined as 0.11 nM; in test [7], 0.49 nM; in [8], 0.94 nM; in [10] it was 2.71 nM. Besides, the “ATPase activity inhibition (IC50), MOLP-8 cells” value in [9] was determined as 0.21 nM. Further, the “ATPase activity inhibition (IC50), SK-MEL-5 cells” value in test [9] amounted to 0.1 nM.

For orientation: EC50 means the concentration at which the effect is half-maximal. A high value points to lower potency in that assay. A word on the Kd: it is the concentration at which binding is half-saturated. A lower Kd goes with a tighter complex. The term koff denotes the first-order rate constant of dissociation. A lower koff goes with a long-lived complex. In general, kon refers to a measure of how fast the partners come together. Low readings indicate slow association, high ones fast association. As usually defined, the IC50 is the midpoint of a concentration-inhibition curve.
